Here are results for 7 substances from patent US20100015126A1, “Methods of Binding of Cross-Beta Structures By Chaperones” (priority 2006, published 2010).

T2 sequence (P08238 whole entry): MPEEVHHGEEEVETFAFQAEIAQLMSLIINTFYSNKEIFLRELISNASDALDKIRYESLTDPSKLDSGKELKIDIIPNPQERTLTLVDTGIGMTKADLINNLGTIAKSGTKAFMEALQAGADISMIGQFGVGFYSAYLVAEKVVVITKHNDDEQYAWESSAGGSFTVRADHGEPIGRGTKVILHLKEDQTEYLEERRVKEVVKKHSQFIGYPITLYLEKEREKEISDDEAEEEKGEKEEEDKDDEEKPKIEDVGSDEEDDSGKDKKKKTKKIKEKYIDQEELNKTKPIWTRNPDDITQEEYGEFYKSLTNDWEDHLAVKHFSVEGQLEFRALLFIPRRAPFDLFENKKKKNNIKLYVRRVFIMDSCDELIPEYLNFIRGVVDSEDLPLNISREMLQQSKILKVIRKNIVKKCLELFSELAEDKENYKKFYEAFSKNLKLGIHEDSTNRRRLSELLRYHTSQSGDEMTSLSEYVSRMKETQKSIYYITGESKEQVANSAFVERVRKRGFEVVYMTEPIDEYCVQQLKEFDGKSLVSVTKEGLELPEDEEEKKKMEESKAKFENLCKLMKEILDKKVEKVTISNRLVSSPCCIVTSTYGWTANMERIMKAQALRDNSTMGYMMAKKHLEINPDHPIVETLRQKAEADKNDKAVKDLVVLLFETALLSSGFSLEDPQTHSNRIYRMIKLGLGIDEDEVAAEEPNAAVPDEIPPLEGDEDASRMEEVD

For the first assay, the target named is T1, human BiP (Homo sapiens, UniProt P11021).
T1 construct: The human BiP gene except the signal peptide encoding region was obtained from Geneart (Germany); linker […]; made in house; host or cells: HEK 293E cells, transient transfection, PABC674 vector; secreted into the medium
T1 sequence (P11021 19-654): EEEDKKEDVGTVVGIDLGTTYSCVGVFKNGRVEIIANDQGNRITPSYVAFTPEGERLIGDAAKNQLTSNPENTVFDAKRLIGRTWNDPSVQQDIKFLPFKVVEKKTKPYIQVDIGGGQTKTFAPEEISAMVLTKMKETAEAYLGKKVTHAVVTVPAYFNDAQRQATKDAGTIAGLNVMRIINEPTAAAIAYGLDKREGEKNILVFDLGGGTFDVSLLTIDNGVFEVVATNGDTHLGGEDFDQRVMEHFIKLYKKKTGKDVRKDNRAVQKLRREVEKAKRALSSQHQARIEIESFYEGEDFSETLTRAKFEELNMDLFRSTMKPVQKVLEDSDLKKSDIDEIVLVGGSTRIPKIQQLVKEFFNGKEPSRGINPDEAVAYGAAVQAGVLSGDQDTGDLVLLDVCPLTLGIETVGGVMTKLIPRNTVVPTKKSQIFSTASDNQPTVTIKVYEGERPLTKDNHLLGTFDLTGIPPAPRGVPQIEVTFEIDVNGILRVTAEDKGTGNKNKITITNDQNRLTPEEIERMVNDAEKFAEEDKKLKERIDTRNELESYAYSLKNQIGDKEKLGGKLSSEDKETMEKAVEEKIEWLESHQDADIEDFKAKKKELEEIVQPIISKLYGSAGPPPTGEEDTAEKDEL
Kind of assay: ELISA: binding of BiP in cell culture supernatant to immobilized misfolded proteins. Conditions: undiluted supernatant of 293E cells overexpressing BiP; ligands coated at 5 μg/ml, Aβ 20 μg/ml. The procedure:
Binding of BiP to Misfolded Proteins with Crossbeta Structure
Proteins at 5 μg/ml were coated for 1 h at room temperature with agitation, in Microlon high-binding ELISA plates (Greiner) in 50 mM NaHCO3 pH 9.6, except for Aβ that was coated at 20 μg/ml. Buffer was coated as negative control. A twofold dilutions series of cell culture supernatant of HEK 293E cells overexpressing BiP was also coated to the plate for anti-FLAG-tag antibody control purposes. Plates were washed and blocked with ½*Blocking reagent (Roche). Undiluted cell culture supernatant enriched with 0.1% Tween20 was added to the wells with immobilized protein ligands and incubated for 1 h at room temperature with agitation. Medium was discarded and the plate was washed with PBS with 0.1% v/v Tween20. Mouse monoclonal anti-FLAG-tag antibody (Sigma, A8592, anti-FLAG M2PO conjugate) was diluted 1000× in PBS/0.1% Tween20 and added to all wells, including those that are coated with cell culture supernatant. After a 1 h incubation at room temperature with agitation and after washing, wells were overlayed with 3000× diluted RAMPO (DAKOCytomation) in PBS/0.1% Tween20. After 30 minutes the plate was washed and bound peroxidase was visualised with tetramethylbenzidine (TMB, #45.103.20/#45.014.01, Biosource, Nivelles, Belgium). The reaction was stopped after 5 minutes with 10% H2SO4 in H2O. Plates were read at 450 nm.
For the substance “native BSA: non-modified bovine serum albumin control”, the “Binding of BiP to immobilized protein (ELISA)” value (“Binding of BiP” for short) is recorded as “not”.

With “HbAGE: human haemoglobin glycated with glucose-6-phosphate for 75 weeks”, the “Binding of BiP” value was “binds”. In the case of BSA-AGE, the “Binding of BiP” value is recorded as “binds”.

Another assay concerns the target T2, recombinant human HSP90beta (Homo sapiens, UniProt P08238).
T2 construct: purchased Dr. S. Rüdiger, Cellular Protein Chemistry, Utrecht University
Kind of assay: ELISA: binding of HSP90 to immobilized (misfolded) protein ligands. The note with it: 5 mM DTT in binding buffer. The protocol: Recombinant human HSP90beta was bought from Dr. S. Rüdiger (Cellular Protein Chemistry, Department of Chemistry, Faculty of Science, Utrecht University). HSP90beta eluted from an anion exchange column was supplied in 35 mM Bis-Tris/25mM Tris, 5 mM DTT, approximately 385 mM NaCl, approximately pH 9.0. The HSP90beta concentration was 5.0 μM (450 μg/ml with a MW of 90.000 Da; extinction coefficient of 53740 l/(mol*cm)). The supplied frozen stock is kept at −80° C. Before use, the stock is quickly thawed almost completely in a 37° C. water bath, and kept at wet ice. Before use, the HSP90beta solution is centrifuged for 5 minutes at 16,000*g at 4° C. During dilution of HSP90beta solution, 5 mM DTT should be incorporated in the dilution buffer, to keep free Cys residues. Thawed HSP90beta was aliquoted and snap frozen in liquid nitrogen before re-storage at −80° C.
Binding of chaperones to immobilized (misfolded) protein ligands was determined using an enzyme linked immuno sorbent assay (ELISA) approach. For this purpose 50 μl/well of potential ligands at indicated concentrations or coat buffer only for control and background measurement purposes, were coated overnight at 4° C. or coated for 1 h at room temperature, with motion, in 50 mM NaHCO3 pH 9.6 (coat buffer). In general, ligands were coated at 5 μg/ml, unless stated otherwise. For example, BiP binding peptides 6BB# and oxLDL were coated at 50 μg/ml. Native haemoglobin (Sigma-Aldrich, H7379), albumin, IgIV Gammagard and ovalbumin controls were prepared from lyophilized stocks. The controls were prepared by dissolving lyophilized proteins at 1 mg/ml in PBS upon resuspending by pipetting, followed by a 30 minutes period at the roller device, at room temperature. The protein solutions were centrifuged for 10 minutes at 16,000*g and diluted in coat buffer. After coating the plates were washed at least three times with 50 mM Tris-HCl pH 7.3, 150 mM NaCl, 0.1% v/v Tween20, and blocked with Blocking reagent (Roche Diagnostics, Almere, The Netherlands; 11112589001), for 1 h at room temperature, with motion. Plates were washed three times and incubated in triplicate with indicated chaperone dilution series, at 50 μl/well, for 1 h at room temperature, with constant motion. For HSP90, 5 mM DTT is incorporated in the binding buffer (PBS/0.1% Tween20) to avoid unwanted disulfide bond formation of the HSP90. Plates were washed three times and incubated with anti-FLAG antibody (mouse antibody, M2, peroxidase conjugate; Sigma, A-8592) for BiP-FLAG-His, anti-His-tag antibody (Mouse Monoclonal Antibody, Cat. No. 70796, Novagen [0.2 mg/ml]) for HSP60, a 1:1 mix of 500-fold diluted anti-HSP90beta antibodies (Stressgen, SPA-643 [mouse monoclonal IgM], SPA-646 [rabbit polyclonal]) for HSP90 and an anti-DnaK antibody (Stressgen, 023SPA-880D [mouse monoclonal antibody]) for DnaK. After four wash cycles, secondary antibodies were added to the wells when required, 50 μl/well, for 45′ at room temperature, with motion. RAMPO and SWARPO were used at 3000 times dilution. […] In a second experiment with more immobilized misfolded proteins and controls, the detection of bound HSP90 with the mix of two anti-HSP90 antibodies was achieved by mixing 1:1500 SWARPO with 1:3000 RAMPO. After 5 washes with wash buffer followed by two washes with PBS, binding of antibodies was assessed. […] Plates were read at 450 nm. Triplicates were averaged and standard deviations calculated. […]
In general terms: ELISA stands for enzyme-linked immunosorbent assay.
As to GSNKGAIIGLM [6BB6, Human Aβ (25-35)], the “Binding of concentration series of HSP90 to coated ligand” value (“Binding … to coated ligand” for short) was “has been established”. Turning to AGEYYAAL [6BB7], the “Binding … to coated ligand” value was “little binding”. In the case of “HbAGE: human haemoglobin glycated with glucose-6-phosphate for 75 weeks”, the “Binding … to coated ligand” value is “has been established”. With “Hb: non-modified human haemoglobin control”, the “Binding … to coated ligand” value is listed as “did not bind”. As to KLVFFAE [6BB12, Human Aβ16-22], the “Binding … to coated ligand” value is “did not bind”.
